In paper PMC7359698:

Molecular target: ephrin-A1-S6 (human ephrin-A1 with an internal S6 peptide tag, GPI-anchored) (human) (UniProt P20827)
Test: FRET or BRET; heteroFRET by flow cytometry (sensitised emission, compensated; efficiency from median fluorescence intensities); live HEK293 cells in suspension in DPBS + 0.5% BSA, S6-tagged receptor labelled with A547 and A647; for T-cadherin-S6 also followed in time after 10 μg/mL adiponectin

ephrin-A1-S6 (human ephrin-A1 with an internal S6 peptide tag, GPI-anchored) (from UniProt P20827 19-182) (ligand)
FRET efficacy: 14%
